Reference: patent US11833164B2, “Methods of treating Fabry disease in patients having a mutation in the GLA gene” (Amicus Therapeutics, Inc., priority 2019, dated 2023)
Substitutions are numbered along the chain they refer to. In names and notes the source's numbering stands.

B1: A135T (protein)
chain: MQLRNPELHLGCALALRFLALVSWDIPGARALDNGLARTPTMGWLHWERFMCNLDCQEEPDSCISEKLFMEMAELMVSEGWKDAGYEYLCIDDCWMAPQRDSEGRLQADPQRFPHGIRQLANYVHSKGLKLGIYTDVGNKTCAGFPGSFGYYDIDAQTFADWGVDLLKFDGCYCDSLENLADGYKHMSLALNRTGRSIVYSCEWPLYMWPFQKPNYTEIRQYCNHWRNFADIDDSWKSIKSILDWTSFNQERIVDVAGPGGWNDPDMLVIGNFGLSWNQQVTQMALWAIMAAPLFMSNDLRHISPQAKALLQDKDVIAINQDPLGKQGYQLRQGDNFEVWERPLSGLAWAVAMINRQEIGGPRSYTIAVASLGKGVACNPACFITQLLPVKRKLGFYEWTSRLRSHINPTGTVLLQLENTMQMSLKDLL
B2: D136A (protein)
chain: B1 chain with T135A, D136A
B3: D136N (protein)
chain: B1 chain with T135A, D136N
B4: D136V (protein)
chain: B1 chain with T135A, D136V
B5: V137A (protein)
chain: B1 chain with T135A, V137A
B6: V137D (protein)
chain: B1 chain with T135A, V137D
B7: V137G (protein)
chain: B1 chain with T135A, V137G
B8: V137I (protein)
chain: B1 chain with T135A, V137I
B9: V137L (protein)
chain: B1 chain with T135A, V137L
B10: G138A (protein)
chain: B1 chain with T135A, G138A

System: mutant form of α-Gal A expressed in HEK-293 cells
Test: HEK assay (GLP HEK / Migalastat Amenability Assay): α-Gal A activity in lysates of transiently transfected HEK-293 cells incubated with or without 10 μM migalastat
Type: cell-based, human
Conditions: 10 μM migalastat versus baseline
Experimental: Such mutations or variants are also referred to herein as “HEK assay amenable” mutations or variants.
The α-Gal A activity is expressed as the nmoles of free 4-MU released per milligram of protein per hour (nmol/mg/hr).
In Table 7, values for the mean±standard error of the mean (SEM) were calculated. nmol/mg/hr indicates “nmoles of free 4-MU released per mg of protein per hour”. WT indicates “wild-type”. NC indicates “not calculable”. N/A indicates “not applicable”.

Molecule	Absolute increase (% WT)
B1	23.2
B2	9.4
B3	11.2
B4	74.2
B5	45.4
B6	11.6
B7	52.4
B8	24.7
B9	11.7
B10	20.1

Same assay, conditions: 10 μM migalastat α-Gal A activity relative to baseline

Molecule	Relative increase
B1	2.4
B2	1.5
B3	1.9
B4	2.8
B5	1.8
B6	9.2
B7	2.2
B8	1.8
B9	1.3
B10	2.3

Same assay, conditions: 10 μM migalastat, 5 days; percentage of baseline wild-type α-Gal A activity; mean ± SEM

Molecule	10 μM migalastat α-Gal A activity (% WT)
B1	40.5 ± 3.4
B2	29.8 ± 1
B3	24.2 ± 0.9
B4	116.4 ± 5.5
B5	106.6 ± 5.9
B6	13 ± 1.6
B7	98.2 ± 5
B8	57.4 ± 2.5
B9	53.3 ± 3.7
B10	34.5 ± 1.5

Same assay, conditions: absence of migalastat; percentage of baseline wild-type α-Gal A activity; mean ± SEM

Molecule	Baseline α-Gal A activity (% WT)
B1	17.4 ± 1.3
B2	20.4 ± 1.1
B3	13 ± 0.8
B4	42.2 ± 1.7
B5	61.1 ± 4.6
B6	1.4 ± 0.2
B7	45.9 ± 4.2
B8	32.8 ± 1.6
B9	41.6 ± 2.1
B10	14.4 ± 1.1

Same assay, conditions: lysates of HEK-293 cells transfected with the mutant form, incubated 5 days in the absence of migalastat; mean ± SEM

Molecule	Baseline α-Gal A activity [nmol/mg/h]
B1	7906 ± 694
B2	8054 ± 482
B3	5079 ± 248
B4	17164 ± 1203
B5	22393 ± 1429
B6	516 ± 80
B7	16515 ± 1170
B8	12148 ± 597
B9	15359 ± 656
B10	4768 ± 480

Same assay, conditions: lysates of HEK-293 cells transfected with the mutant form, incubated 5 days with 10 μM migalastat; mean ± SEM

Molecule	10 μM migalastat α-Gal A activity [nmol/mg/h]
B1	18890 ± 2092
B2	12166 ± 927
B3	9827 ± 630
B4	47647 ± 3779
B5	40016 ± 2785
B6	4757 ± 618
B7	36258 ± 1701
B8	21313 ± 987
B9	19794 ± 1475
B10	11112 ± 732
